From patent US20080044360A1 (COLLAGEN MEDICAL, published 2008)
Bridge positions count the residues as written; N and C are the ends. Square brackets hold non-standard residues; d marks the D form. Primed or numbered codes have the meaning given here. Side chains are listed from the residue outwards. Ends that are not written are not given here. * marks the point of attachment. Tyr(3-NO2) = N[C@@H](Cc1ccc(O)c([N+](=O)[O-])c1)C(=O)O; Phe(4-tBu) = CC(C)(C)c1ccc(C[C@H](N)C(=O)O)cc1; Tyr(3-Cl) = N[C@@H](Cc1ccc(O)c(Cl)c1)C(=O)O; Bip = N[C@@H](Cc1ccc(-c2ccccc2)cc1)C(=O)O; Tyr(3-I) = N[C@@H](Cc1ccc(O)c(I)c1)C(=O)O; Dip = N[C@H](C(=O)O)C(c1ccccc1)c1ccccc1; Phe(4-NH2) = Nc1ccc(C[C@H](N)C(=O)O)cc1; Gd^T(3) = GdDTPA attached via thiourea; d1Nal = N[C@H](Cc1cccc2ccccc12)C(=O)O; Lys(Gd^T)Gd^T = not defined here; Pen = CC(C)(S)[C@H](N)C(=O)O; Gd^G = not defined here; Gd^T = not defined here; Gd^T″ = GdDTPA-thiourea; Cbz = O=C(OCc1ccccc1)*; Dap = NC[C@H](N)C(=O)O

Assays:
[1] = molecular target: T1, human collagen type I, acid soluble, extracted from placenta (Sigma C7774) (human, UniProt P02452 162-1218; P08123 80-1119); assay: dried collagen assay
T1 construct: tissue extract, gelled and dried in wells; also called dried human collagen; h-Collagen

[2] = molecular target: T2, rat collagen, acid soluble, type I, rat tail (Upstate 08-115) (rat, UniProt P02454 152-1207; P02466 86-1125); assay: dried collagen assay
T2 construct: tissue extract, gelled and dried in wells; also called dried rat collagen
T2 sequence (P02454 152-1207, chain 1 of 2): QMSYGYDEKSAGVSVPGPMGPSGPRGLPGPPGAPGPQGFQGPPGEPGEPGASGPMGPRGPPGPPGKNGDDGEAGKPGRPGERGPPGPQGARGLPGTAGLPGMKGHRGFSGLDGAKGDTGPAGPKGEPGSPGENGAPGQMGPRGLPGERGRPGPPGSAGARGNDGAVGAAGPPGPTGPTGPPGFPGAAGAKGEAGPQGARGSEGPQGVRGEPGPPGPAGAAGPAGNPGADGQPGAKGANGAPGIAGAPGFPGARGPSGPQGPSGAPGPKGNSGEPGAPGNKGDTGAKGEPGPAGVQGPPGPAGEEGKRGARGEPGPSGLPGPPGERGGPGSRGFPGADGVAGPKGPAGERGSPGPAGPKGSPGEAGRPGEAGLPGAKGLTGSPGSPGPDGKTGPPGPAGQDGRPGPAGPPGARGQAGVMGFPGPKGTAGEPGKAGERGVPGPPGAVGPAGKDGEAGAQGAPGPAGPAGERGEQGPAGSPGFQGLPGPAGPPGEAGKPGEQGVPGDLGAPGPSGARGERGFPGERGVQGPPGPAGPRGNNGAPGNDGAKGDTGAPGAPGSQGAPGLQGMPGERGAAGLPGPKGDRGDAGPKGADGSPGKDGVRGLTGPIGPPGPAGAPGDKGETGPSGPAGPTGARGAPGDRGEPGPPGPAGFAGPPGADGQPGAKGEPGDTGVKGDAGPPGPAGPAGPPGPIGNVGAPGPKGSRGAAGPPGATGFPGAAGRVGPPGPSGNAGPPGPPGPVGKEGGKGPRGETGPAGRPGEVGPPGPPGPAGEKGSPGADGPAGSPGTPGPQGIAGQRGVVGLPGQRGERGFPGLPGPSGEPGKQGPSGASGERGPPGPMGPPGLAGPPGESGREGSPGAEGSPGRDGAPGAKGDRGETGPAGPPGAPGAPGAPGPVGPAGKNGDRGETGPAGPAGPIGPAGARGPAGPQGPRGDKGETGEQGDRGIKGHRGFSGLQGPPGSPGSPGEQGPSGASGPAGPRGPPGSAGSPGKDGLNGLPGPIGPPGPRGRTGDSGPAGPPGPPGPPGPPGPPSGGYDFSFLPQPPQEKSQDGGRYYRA
T2 sequence (P02466 86-1125, chain 2 of 2): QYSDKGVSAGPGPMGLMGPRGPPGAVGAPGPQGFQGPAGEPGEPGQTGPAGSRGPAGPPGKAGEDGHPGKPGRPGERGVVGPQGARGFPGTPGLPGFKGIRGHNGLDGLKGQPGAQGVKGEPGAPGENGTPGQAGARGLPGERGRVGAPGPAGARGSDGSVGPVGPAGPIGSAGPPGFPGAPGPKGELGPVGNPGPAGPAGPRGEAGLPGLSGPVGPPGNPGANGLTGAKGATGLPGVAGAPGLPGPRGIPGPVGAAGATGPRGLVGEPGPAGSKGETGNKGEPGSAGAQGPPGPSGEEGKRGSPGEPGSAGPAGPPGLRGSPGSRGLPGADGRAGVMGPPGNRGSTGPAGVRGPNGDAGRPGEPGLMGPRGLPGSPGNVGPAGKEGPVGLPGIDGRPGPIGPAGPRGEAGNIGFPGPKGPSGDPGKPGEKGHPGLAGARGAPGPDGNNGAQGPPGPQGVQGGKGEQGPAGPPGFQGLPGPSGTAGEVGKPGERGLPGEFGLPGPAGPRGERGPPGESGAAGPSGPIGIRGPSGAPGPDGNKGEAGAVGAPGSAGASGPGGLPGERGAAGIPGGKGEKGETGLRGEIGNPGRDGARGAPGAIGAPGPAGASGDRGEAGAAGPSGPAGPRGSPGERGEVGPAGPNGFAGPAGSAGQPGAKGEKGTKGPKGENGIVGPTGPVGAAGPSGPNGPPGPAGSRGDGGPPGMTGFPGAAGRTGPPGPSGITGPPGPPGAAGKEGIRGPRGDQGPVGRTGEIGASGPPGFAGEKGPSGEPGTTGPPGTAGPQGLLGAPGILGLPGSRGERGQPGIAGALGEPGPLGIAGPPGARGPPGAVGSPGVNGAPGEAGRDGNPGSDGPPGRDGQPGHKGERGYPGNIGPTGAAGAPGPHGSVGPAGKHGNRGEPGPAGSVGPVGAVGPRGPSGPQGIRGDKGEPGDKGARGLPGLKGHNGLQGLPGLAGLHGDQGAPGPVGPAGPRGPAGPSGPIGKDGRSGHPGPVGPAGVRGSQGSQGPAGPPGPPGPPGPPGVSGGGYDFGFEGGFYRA

T1 sequence (P02452 162-1218 limits assumed, chain 1 of 2): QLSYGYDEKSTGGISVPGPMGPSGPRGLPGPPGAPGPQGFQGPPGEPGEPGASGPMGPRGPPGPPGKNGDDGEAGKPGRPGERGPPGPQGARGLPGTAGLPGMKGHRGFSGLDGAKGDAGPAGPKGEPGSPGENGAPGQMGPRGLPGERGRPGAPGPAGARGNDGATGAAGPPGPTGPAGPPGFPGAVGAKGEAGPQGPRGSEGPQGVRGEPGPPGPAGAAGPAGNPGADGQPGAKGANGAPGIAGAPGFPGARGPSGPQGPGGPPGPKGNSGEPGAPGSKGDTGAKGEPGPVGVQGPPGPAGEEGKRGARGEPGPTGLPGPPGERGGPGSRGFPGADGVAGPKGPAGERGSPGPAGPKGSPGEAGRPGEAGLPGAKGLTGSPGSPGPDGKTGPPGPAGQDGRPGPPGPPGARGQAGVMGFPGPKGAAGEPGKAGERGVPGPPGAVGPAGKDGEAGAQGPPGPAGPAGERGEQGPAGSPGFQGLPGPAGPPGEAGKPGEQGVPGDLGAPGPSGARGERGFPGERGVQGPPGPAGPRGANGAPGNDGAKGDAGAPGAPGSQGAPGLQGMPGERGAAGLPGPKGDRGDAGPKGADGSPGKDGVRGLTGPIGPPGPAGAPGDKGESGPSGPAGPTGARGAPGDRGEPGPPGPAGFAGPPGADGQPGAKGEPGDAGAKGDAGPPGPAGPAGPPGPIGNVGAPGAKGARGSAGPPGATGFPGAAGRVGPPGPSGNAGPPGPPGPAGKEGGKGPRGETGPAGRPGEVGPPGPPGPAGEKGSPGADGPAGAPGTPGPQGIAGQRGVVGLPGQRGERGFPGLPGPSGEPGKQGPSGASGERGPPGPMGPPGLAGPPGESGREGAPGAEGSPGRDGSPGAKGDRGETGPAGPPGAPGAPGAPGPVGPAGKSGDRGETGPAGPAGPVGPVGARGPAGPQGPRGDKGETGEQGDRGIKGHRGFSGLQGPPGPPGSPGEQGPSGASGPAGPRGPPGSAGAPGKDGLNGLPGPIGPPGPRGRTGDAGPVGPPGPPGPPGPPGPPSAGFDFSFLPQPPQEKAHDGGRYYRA
T1 sequence (P08123 80-1119 limits assumed, chain 2 of 2): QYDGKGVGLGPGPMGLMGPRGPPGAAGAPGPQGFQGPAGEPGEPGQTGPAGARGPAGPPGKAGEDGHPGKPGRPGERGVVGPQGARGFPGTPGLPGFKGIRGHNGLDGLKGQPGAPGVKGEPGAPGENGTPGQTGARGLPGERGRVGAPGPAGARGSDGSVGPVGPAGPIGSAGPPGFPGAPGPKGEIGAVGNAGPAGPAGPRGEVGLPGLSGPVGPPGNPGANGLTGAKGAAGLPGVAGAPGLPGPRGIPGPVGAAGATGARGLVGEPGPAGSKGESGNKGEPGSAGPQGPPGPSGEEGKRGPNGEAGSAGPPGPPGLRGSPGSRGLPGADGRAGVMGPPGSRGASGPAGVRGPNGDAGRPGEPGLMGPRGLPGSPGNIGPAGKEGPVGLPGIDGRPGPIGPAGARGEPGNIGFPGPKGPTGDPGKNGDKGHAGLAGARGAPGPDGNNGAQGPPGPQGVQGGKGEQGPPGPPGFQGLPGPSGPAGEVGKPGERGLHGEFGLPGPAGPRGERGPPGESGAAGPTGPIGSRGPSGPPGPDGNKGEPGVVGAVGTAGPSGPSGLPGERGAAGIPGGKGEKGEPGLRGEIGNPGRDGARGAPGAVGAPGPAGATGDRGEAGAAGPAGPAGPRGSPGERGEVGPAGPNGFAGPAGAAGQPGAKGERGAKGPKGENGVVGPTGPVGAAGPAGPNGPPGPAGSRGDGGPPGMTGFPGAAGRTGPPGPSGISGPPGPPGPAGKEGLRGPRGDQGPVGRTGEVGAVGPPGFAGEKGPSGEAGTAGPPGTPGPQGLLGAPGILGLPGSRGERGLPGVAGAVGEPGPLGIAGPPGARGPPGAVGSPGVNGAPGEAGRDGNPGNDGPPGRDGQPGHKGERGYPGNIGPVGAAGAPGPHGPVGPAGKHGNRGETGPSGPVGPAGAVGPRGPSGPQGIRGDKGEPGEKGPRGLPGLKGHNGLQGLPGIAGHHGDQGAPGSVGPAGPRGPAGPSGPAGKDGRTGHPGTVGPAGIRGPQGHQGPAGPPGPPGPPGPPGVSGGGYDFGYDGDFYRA

Row | % bound [1] [%] | % bound [2] [%] | Binder
1 | 0 | – | {Gd^T(3)}-GQWHCTTRFPHH[d1Nal]CLYG (disulfide 5-14; not fully specified (C-terminus)) [Compound ID 904]
2 | 77 | – | {Gd^T″}-GK([Gly-Gd^T″])WHCTTYFPHH[Dip]CLYG (disulfide 5-14 (inferred); not fully specified) [Compound ID 968]
3 | 35 | 9 | {Gd^T}-DWTCSGDEYTWHCNYE (disulfide 4-13 (inferred); not fully specified (C-terminus); reading uncertain) [Compound ID 848]
4 | 11 | – | {Gd^T″}-GK([Gly-Gd^T″])WHCTTYFPHHYCL[Dip]G (disulfide 5-14 (inferred); not fully specified) [Compound ID 967]
5 | 13 | – | {Gd^T(3)}-GQWHCTTRFPHHY[Pen]LYG (disulfide 5-14; not fully specified (C-terminus)) [Compound ID 906]
6 | 16 | – | {Gd^T″}-GQWHCTTD[Phe(4-NH2)](Gd^T″)PHHYCLYG (disulfide 5-14 (inferred)) [Compound ID 885]
7 | – | 0 | {Gd^T″}-GQWHCTTD[Tyr(3-Cl)]PHHYCLYG (disulfide 5-14 (inferred); not fully specified (C-terminus)) [Compound ID 895]
8 | – | 3 | {Gd^T″}-GQWHCT[dS]RFPHHYCLYG (disulfide 5-14 (inferred); not fully specified (C-terminus)) [Compound ID 898]
9 | 14 | – | {Gd^T″}-GK([Gly-Gd^T″])WHCTTLFPHHVCLYG (disulfide 5-14 (inferred)) [Compound ID 966]
10 | 9 | – | Cbz-GQWHCTK(Gd^T″)RFPHHYCLYG (disulfide 5-14 (inferred)) [Compound ID 940]
11 | 9 | – | {Gd^T″}-GQWHCTDRFPHHYCLYG (disulfide 5-14 (inferred)) [Compound ID 936]
12 | – | 1 | {Gd^T″}-GQWHCT[dR]RFPHHYCLYG (disulfide 5-14 (inferred); not fully specified (C-terminus)) [Compound ID 900]
13 | – | 2 | {Gd^T″}-GQWHCTTRFPHH[dT]CLYG (disulfide 5-14 (inferred); not fully specified (C-terminus)) [Compound ID 905]
14 | – | 47 | {Gd^T″}-K(Gd^T″)K(Lys(Gd^T)Gd^T)WHCYTYFPHHYCVYG (disulfide 5-14 (inferred); reading uncertain) [Compound ID 1003]
15 | – | 1 | {Gd^T″}-GQWHCT[dN]RFPHHYCLYG (disulfide 5-14 (inferred); not fully specified (C-terminus)) [Compound ID 897]
16 | – | 2 | {Gd^T″}-GQWHCTTRFPHH[dR]CLYG (disulfide 5-14 (inferred); not fully specified (C-terminus)) [Compound ID 902]
17 | 14 | – | {Gd^T″}-GK([Gly-Gd^T″])WH[dC]TTK(Gd^T″)FPHHYCLY[Bip] (disulfide 5-14) [Compound ID 1019]
18 | – | 32 | {Gd^T(3)}-GK([Gly-Gd^T(3)])WHCTTYFPHH[Bip]CLYG (disulfide 5-14) [Compound ID 951]
19 | – | 13 | {Gd^T″}-GQWHCTTDFPH[Dap]YCLYG (disulfide 5-14) [Compound ID 886]

More lines, now with the values behind:

Row | Binder | % bound [1] [%] | % bound [2] [%]
20 | {Gd^G}-PWTCSGDEYAWHCNY[dE] (disulfide 4-13 (inferred); not fully specified (C-terminus); reading uncertain) [Compound ID 824] | 12 | 0
21 | {Gd^T″}-DWTCSGDEYTWHCN[Tyr(3-I)]E (disulfide 4-13 (inferred); not fully specified (C-terminus)) [Compound ID 831] | 50 | 21
22 | {Gd^T″}-DWTCSGDEYYWHCNYE (disulfide 4-13 (inferred); not fully specified (C-terminus)) [Compound ID 834] | 22 | 9
23 | {Gd^T″}-DWTCS[dA]DEYTWHCNYE (disulfide 4-13 (inferred); not fully specified (C-terminus)) [Compound ID 835] | 17 | 9
24 | {Gd^T}-DWTCSGDE[Tyr(3-I)]TWHCNYE (disulfide 4-13 (inferred); not fully specified (C-terminus); reading uncertain) [Compound ID 846] | 31 | 9
25 | {Gd^T″}-DWTC[Phe(4-CO2H)]GDEYTWHCNYE (disulfide 4-13 (inferred); not fully specified (C-terminus)) [Compound ID 828] | 52 | 20
26 | {Gd^G}-DWTCS[dR]DEYTWHCNYE (disulfide 4-13 (inferred); not fully specified (C-terminus); reading uncertain) [Compound ID 821] | 56 | 29
27 | {Gd^T″}-DWTC[Tyr(Bn,3-Cl)]GDEYTWHCNYE (disulfide 4-13 (inferred); not fully specified (C-terminus)) [Compound ID 825] | 61 | 63
28 | {Gd^T}-DWTCSGDEYRWHCNYE (disulfide 4-13 (inferred); not fully specified (C-terminus); reading uncertain) [Compound ID 845] | 36 | 10
29 | {Gd^T″}-DWTCS[dS]DEYTWHCNYE (disulfide 4-13 (inferred); not fully specified (C-terminus)) [Compound ID 836] | 13 | –
30 | {Gd^T″}-DWTC[Phe(4-tBu)]GDEYTWHCNYE (disulfide 4-13 (inferred); not fully specified (C-terminus)) [Compound ID 827] | 41 | 20
31 | {Gd^T}-DWTCS[dL]DEYTWHCNYE (disulfide 4-13 (inferred); not fully specified (C-terminus); reading uncertain) [Compound ID 847] | 16 | –
32 | {Gd^T}-DWTCYGDEYTWHCNYE (disulfide 4-13 (inferred); not fully specified (C-terminus); reading uncertain) [Compound ID 844] | 68 | 48
33 | {Gd^G}-DWTCRGDEYTWHCNYE (disulfide 4-13 (inferred); not fully specified (C-terminus); reading uncertain) [Compound ID 822] | 47 | 20
34 | {Gd^T}-DWTCSGDEYTWYCNYE (disulfide 4-13 (inferred); not fully specified (C-terminus); reading uncertain) [Compound ID 842] | 23 | 9
35 | {Gd^T″}-DWTCS[dY]DEYTWHCNYE (disulfide 4-13 (inferred); not fully specified (C-terminus)) [Compound ID 829] | 20 | 21
36 | {Gd^T}-DWTC[Tyr(3-NO2)]GDEYTWHCNYE (disulfide 4-13 (inferred); not fully specified (C-terminus); reading uncertain) [Compound ID 843] | 55 | 36
37 | {Gd^T″}-GQWTCSGDEYAWHCNY[dE] (disulfide 5-14 (inferred); not fully specified (C-terminus)) [Compound ID 832] | 12 | –
38 | {Gd^T}-GQWACSGDEYTWHCNYE (disulfide 5-14 (inferred); not fully specified (C-terminus); reading uncertain) [Compound ID 840] | 15 | –
39 | {Gd^T″}-GQWTCSGDEYTWACNYE (disulfide 5-14 (inferred); not fully specified (C-terminus)) [Compound ID 833] | 13 | –
